A short description of series [1]: ELSA: hydrolysis of plate-bound biotinylated β-glucan by enzymes. In kind it is biochemical. Particulars: for Relative activity compared to lichenase (mean ± SD, n = 12): enzymes diluted to 5 U/mL per manufacturer values, 0.2 biotin-glucan diluted 1 to 50,000, hydrolysis 15 min, 22° C. The procedure:
Preparation of biotin-glucan conjugates. The technique is based on the principle that active aldehyde groups which is generated after sodium periodate oxidation of the hydroxyl group of the polysaccharide moiety, reacts with ethylenediamine to form an aminated polysaccharide. The Schiff bases that are formed are stabilized by reaction with sodium borohydride (Wong, 1991). The amine groups can then be conjugated to biotin using BNHS. In brief, 75 mg β-glucan was dissolved in 2 mL distilled water and 0.1 mL of 100 mM NaIO4 was then added. The reaction was protected from light and mixed for 0.5 hours at room temperature. The reaction mixture was treated with 1 mL ethylenediamine for 2 hours and unreacted reagents were removed by ethanol precipitation. This involved the addition of 8 mL of 95% (V/V) ethanol to the reaction mixture (3 mL), followed by mixing of the sample, centrifugation at 10000 g for 10 minutes at 0° C. and dissolving the pellet in 2 mL of distilled water. The preparations was washed three times. The washed precipitate was then dissolved in 2 mL distilled water, 5 mg of sodium borohydride were added and the reaction was allowed to proceed for 4 hours at 4° C. The washing steps as indicated above were repeated three times. The biotin ester (BNHS, 15 mg or 0.15 mg) was dissolved in 0.2 mL DMSO, the mixture was allowed to react at room temperature for 3 hours followed by three ethanol precipitations as described above. The final precipitate was dissolved in 3 mL distilled water, divided into aliquots and each aliquot of the BNHS-β-glucan complex was store frozen at […] in sealed polypropylene containers. The ratio of BNHS to β-glucan were 0.2 and 0.002 for the complexes that were synthesized from 15 mg or 0.15 mg BNHS and 75 mg β-glucan, respectively.
The microtitre plates were directly coated with 0.1 mL/well of the biotin-glucan complex diluted in 0.05 M carbonate-bicarbonate buffer (pH=9.6), and then left at room temperature for 1 hr and overnight at […] The usual dilutions of the 0.2 and 0.002 stock biotin-glucan complex were 50,000 and 100 fold, respectively. The plates were washed 3 times with PBS-T buffer and the emptied plates were stored in sealed containers at 0° C. for up to several months.
Test procedures. β-Glucanase (lichenase) was diluted with 20 mM sodium phosphate buffer (pH 6.5) to the desired concentration. The enzyme (100 μL) was added to each well in the biotin-glucan coated microtiter plate, the plate was sealed with a low evaporation lid, and the mixture was incubated for the desired period of time (from 1 to 30 minutes) and at the desired temperature (usually 22-24° C.). The reaction was stopped by emptying the plates followed by washing of the wells three times with pH 7.2 PBS-T. Blanks contained the incubation buffer without enzyme. Alkaline phosphatase-streptavidin (100 μg) diluted 1:1000 in pH 7.2 PBS was added to each well and incubated for 30 minutes at room temperature. The plates were washed six times with pH 7.2 PBS-T and dried at ambient temperature for approximately 10 to 20 minutes. Alkaline phosphatase substrate solution was then added to each well (100 μL) and the microtiter plates were incubated at room temperature for 30 minutes, or until absorbency of the well with no enzyme yielded a value of from 1.5 to 2.0 optical density units. The plates were read at 405 nm using a microtiter plate reader (Bio-Rad Laboratories Ltd., Mississauga, ON, Canada, Model 450).
Other procedures The method for preparing the arabinoxylan substrate was the same as used for β-glucan except the substrate was arabinoxylan rather than β-glucan. The BNHS to arabinoxylan ratio was 0.2 with the stock substrate being diluted 10,000 fold prior to being coated on the plate. The azo-barley-glucan method for the assay of β-glucanase was according to the procedure described by McCleary and Shameer (1987). The precision of the assay was studied using three concentration of enzyme (0.076, 2.1 and 160 mU)/well. […]

The test system of the next series is trypsin (EC 3.4.21.4). In words: BEISA: competition of inhibitors or other substances for biotinylated trypsin against coated ovomucoid. It is filed as binding.
A further series concerns biotinylated α-casein. Briefly: Solid phase protease activity assay using biotinylated casein. In kind it is biochemical. Particulars: for Hydrolysis of biotin-casein by proteases / Sensitivity (amount of enzyme required to hydrolyse 10% of the biotinylated α-casein): optimal pH of each protease, 37° C., 30 minutes. Here is the method:
Preparation of biotinylated casein: 12 mg α-casein in 1 ml of 0.1 M pH 7.2 phosphate-buffer saline [PBS, NaCl, 9.00; Na2HPO4, 1.15; NaH2PO4, 0.23 (g/l)] was allowed to react with 3.6 mg NHS-biotin in 150 ul DMSO for 2 hours at room temperature with gently shaking.
Assay procedure for protease activity using biotinylated casein: The microtitre plates except for the first column of 8 wells were coated using biotinylated α-casein in PBS (0.13 ug/well/100 ul) and incubated for 2 hours at 37° C. The plates were washed three times with 0.1 M PBST (PBS with 0.05% Tween-20). Different concentrations of the enzyme solution as indicated in FIGS. 12-14 (100 ul) were diluted with the appropriate buffer (see Table 2). They were added in triplicate to the wells of a plate followed by incubating in a humid atmosphere at 37° C. for 30 minutes. The plate was washed three times using PBST to terminate the protease reaction. A streptavidin-alkaline phosphatase solution (100 ul/well, 1:1000 dilution in bicarbonate buffer pH 9.5) was added to all wells in the plate except for the first column of 8 wells (as blank) and the plate was incubated at room temperature for 30 minutes. The blank set of wells contained only PBS, no added enzyme and no coating with biotinylated casein. The reaction was stopped by emptying and washing the plate six times with PBST. The pNPP substrate (100 ul/well, 1 mg/ml in 10% diethanolamine buffer pH9.8) was added to each well of the plate followed by incubation at room temperature for about 20 minutes. The absorbency was then read at 405 nm using a microplate reader (Bio-Rad laboratories, Ltd, Mississauga, ON, Canada; model 450). The best sensitivity was obtained when the maximum absorbency was around 2.0 optical density units.

The next series deals with T1, β-glucanase (lichenase) (Bacillus subtilis, UniProt P04957).
T1 construct: purchased Megazyme Pty.Ltd. batch MLI 82001
In words: Influence of exogenous β-glucan on β-glucanase activity in the ELSA. Conditions: 0.5 mU β-glucanase/well; 22° C., 15 minutes. In kind it is biochemical. An excerpt: (§1) Other procedures The method for preparing the arabinoxylan substrate was the same as used for β-glucan except the substrate was arabinoxylan rather than β-glucan. The BNHS to arabinoxylan ratio was 0.2 with the stock substrate being diluted 10,000 fold prior to being coated on the plate. The azo-barley-glucan method for the assay of β-glucanase was according to the procedure described by McCleary and Shameer (1987). The precision of the assay was studied using three concentration of enzyme (0.076, 2.1 and 160 mU)/well. They were added (100 μl) to wells containing the 0.2 biotin-β-glucan diluted 1 to 50,000 and the mixture was incubated for 15 minutes at 22° C. Other procedures were as described above. The assay within the same titer plate was replicated 8 times. The entire assay was replicated 6 times. In the study on the effects that β-glucan had on enzyme activity, β-glucan (5.12 mg/mL) in 20 mM sodium phosphate buffer (pH6.5) was mixed with an equal volume of 0.2 U/mL of β-glucanase and hydrolysed at 40° C. for 60 minutes. The reaction was stopped by putting the enzyme solution in a boiling water bath for 15 minutes. The control sample contained β-glucan but was not incubated with enzyme and was not subjected to boiling. […]

Series [2] is described as follows: ELSA for xylanase using biotin-arabinoxylan complex. In kind it is biochemical.
From the text: as §1

Series [3] in a line: Azo-barley glucan method for β-glucanase. It is filed as biochemical.
From the text: as §1

From US6610494B2, “Solid-phase activity assay for biologically active substance” (priority 1996, dated 2003) come the findings set out here.

Description for trypsin (EC 3.4.21.4): Methods: NHS-biotin solution (5.5 mg in 200 ul dimethyl sulfoxide) and trypsin solution (15 mg in 1000 ul PBS) were mixed and reacted at room temperature for 3 hours with gently shaking. The unconjugated biotin was removed at 4° C. using minicon-15 concentrator (Amicon. Co.). The final volume was 1000 ul.
The 96-well microtiter plate (Falcon 3911) was coated with trypsin egg white inhibitor (ovomucoid, 4 ug/100 ul/well) at 370° C. overnight. The plate was washed once using PBST {[PBS, NaCl, 9.00; Na2HPO4, 1.15; NaH2PO4, 0.23 (g/l) pH 7.2] plus 0.05% Tween-20} and 200 ul of 5% skim milk was added to each well of the plate followed by incubation at 37° C. for 2 hours. The plate was rinsed twice with PBST and 50 ul of PBS was added to each well of the plate except for those in column one where 100 ul of PBS was added. Unlabelled trypsin (50 ul of 400 ug/ml) was added to the wells of the second column followed by successive double dilutions of trypsin in wells up to and including those in column 11. Biotinylated trypsin in PBS (50 ul of 1:3000 dilution of the stock to yield approximately 2 ug/100 ul/well) was added to each well except those in the first column followed by incubation at 37° C. for 1 hour. The final volume in each well was 100 ul. The blank set of wells with no trypsin (column 1) served as the negative control while the last set of wells (column 12) with biotinylated trypsin but no unlabelled trypsin served as the positive control. The plate was then washed three times with PBST and 100 ul of streptavidin-alkaline phosphatase (1:1000 in 50 mM bicarbonate buffer, pH 9.5) was added to each well of the plate and the plate was incubated at room temperature for 30 minutes. The plate was washed five times using PBST and 100 ul/well of p-nitrophenyl phosphate substrate (1 mg/ml in 10% diethanolamine buffer, pH 9.8) was added to the plate followed by incubation at ambient temperature for about 30 minutes. The absorbency was then read at 405 nm using a microplate reader (Bio-Rad laboratories Inc. Mississauga, ON, Canada, model 450). […]

Turning to “1,4-β-D-glucan-4-glucanohydrolase [Cellulase]”, the “Relative activity compared to lichenase (mean ± SD, n = 12)” value (“Relative activity … (mean ± SD, n = 12)” for short) in series [1] was 101 ± 7. In the case of `CC(C)C[C@H](NC(=O)N[C@H](C(=O)N[C@@H](CCC(N)=O)C(=O)N[C@@H](C)C=O)[C@@H]1CCNC(=N)N1)C(=O)O` [elastatinal], the “Interference with the binding of labelled trypsin to trypsin inhibitor” value with trypsin (EC 3.4.21.4) is recorded as “did not interfere”. As for `CC(=O)N[C@@H](CC(C)C)C(=O)N[C@@H](CC(C)C)C(=O)N[C@H](C=O)CCCNC(=N)N` [leupeptin], the “Concentration of inhibitor that could be detected” value in the series with trypsin (EC 3.4.21.4) (ovomucoid-coated plate 4 ug/100 ul/well, biotinylated trypsin about 2 ug/100 ul/well) was 0.03 to 1 µg/mL.

As to “amylopectin 6-glycohydrolase [Pullulanase]”, in series [1], the “Relative activity … (mean ± SD, n = 12)” value amounted to 1.8 ± 0.1.

On to “bovine serum albumin (BSA): other protein tested for interference”, for which, in the series on trypsin (EC 3.4.21.4), the “Interference with the binding of labelled trypsin to trypsin inhibitor” value is recorded as “did not interfere”. For the molecule elastase, in the series with biotinylated α-casein, the “Hydrolysis of biotin-casein by proteases” value is “Yes” and the “Sensitivity (amount of enzyme required to hydrolyse 10% of the biotinylated α-casein)” value is 4.4 ng/100 ul/sample. With “endo-1,4-β-D xylan xylanohydrolase [Endo-β-xylanase]”, in series [1], the “Relative activity … (mean ± SD, n = 12)” value was found to be 2.1 ± 0.1. For pepsin, in the series with biotinylated α-casein, the “Hydrolysis of biotin-casein by proteases” value is on record as “Yes” and the “Sensitivity (amount of enzyme required to hydrolyse 10% of the biotinylated α-casein)” value amounted to 641 ng/100 ul/sample. With β-glucan, the “Amount of β-glucan in the well above which enzyme activity was reduced” value at β-glucanase (lichenase) is on record as “exceeded 1 μg/well”.

B1: thermolysin: metaloprotease, EC 3.4.24.27 (protein, UniProt P00800 233-548, looked up)
Thermolysin: ITGTSTVGVGRGVLGDQKNINTTYSTYYYLQDNTRGNGIFTYDAKYRTTLPGSLWADADNQFFASYDAPAVDAHYYAGVTYDYYKNVHNRLSYDGNNAAIRSSVHYSQGYNNAFWNGSQMVYGDGDGQTFIPLSGGIDVVAHELTHAVTDYTAGLIYQNESGAINEAISDIFGTLVEFYANKNPDWEIGEDVYTPGISGDSLRSMSDPAKYGDPDHYSKRYTGTQDNGGVHINSGIINKAAYLISQGGTHYGVSVVGIGRDKLGKIFYRALTQYLTPTSNFSQLRAAAVQSATDLYGSTSQEVASVKQAFDAVGVK
With B1, in the series with biotinylated α-casein, the “Hydrolysis of biotin-casein by proteases” value is reported as “Yes” and the “Sensitivity (amount of enzyme required to hydrolyse 10% of the biotinylated α-casein)” value was determined as 25 ng/100 ul/sample.

B2: papain: cysteine protease, EC 3.4.22.2 (protein, UniProt P00784 134-345, looked up)
Papain: IPEYVDWRQKGAVTPVKNQGSCGSCWAFSAVVTIEGIIKIRTGNLNEYSEQELLDCDRRSYGCNGGYPWSALQLVAQYGIHYRNTYPYEGVQRYCRSREKGPYAAKTDGVRQVQPYNEGALLYSIANQPVSVVLEAAGKDFQLYRGGIFVGPCGNKVDHAVAAVGYGPNYILIKNSWGTGWGENGYIRIKRGTGNSYGVCGLYTSSFYPVKN
Regarding B2, in the series on biotinylated α-casein (0.5 hour hydrolysis), the “Sensitivity: amount of enzyme required to produce a 10% decrease in maximal absorbency” value was 700 ng/100 ul. In the series with biotinylated α-casein, the “Hydrolysis of biotin-casein by proteases” value is reported as “Yes” and the “Sensitivity (amount of enzyme required to hydrolyse 10% of the biotinylated α-casein)” value stood at 700 ng/100 ul/sample.

B3: endo-1,3-1,4-β-D-glucan-4-glucanohydrolase (protein, UniProt P04957 29-242, looked up)
Beta-glucanase: QTGGSFFDPFNGYNSGFWQKADGYSNGNMFNCTWRANNVSMTSLGEMRLALTSPAYNKFDCGENRSVQTYGYGLYEVRMKPAKNTGIVSSFFTYTGPTDGTPWDEIDIEFLGKDTTKVQFNYYTNGAGNHEKIVDLGFDAANAYHTYAFDWQPNSIKWYVDGQLKHTATNQIPTTPGKIMMNLWNGTGVDEWLGSYNGVNPLYAHYDWVRYTKK
notes: EC 3.2.1.73 from Bacillus subtilis, Megazyme
With B3, in series [1], the “Detection range for the ELSA” value fell in the range of 0.001 to 1 mU/assay and the “Relative activity … (mean ± SD, n = 12)” value is recorded as 100 ± 4. Also, the “Activity on biotin-arabinoxylan substrate” value in series [2] is listed as “No activity”. For the same molecule, the “Detection range of the azo-barley glucan procedure” value in series [3] is 10 to 100 mU/assay.

B4: 1,4-D glucan glucanohydrolase (protein, UniProt P00690 16-511, looked up)
Pancreatic alpha-amylase: QYAPQTQSGRTSIVHLFEWRWVDIALECERYLGPKGFGGVQVSPPNENIVVTNPSRPWWERYQPVSYKLCTRSGNENEFRDMVTRCNNVGVRIYVDAVINHMCGSGAAAGTGTTCGSYCNPGNREFPAVPYSAWDFNDGKCKTASGGIESYNDPYQVRDCQLVGLLDLALEKDYVRSMIADYLNKLIDIGVAGFRIDASKHMWPGDIKAVLDKLHNLNTNWFPAGSRPFIFQEVIDLGGEAIQSSEYFGNGRVTEFKYGAKLGTVVRKWSGEKMSYLKNWGEGWGFMPSDRALVFVDNHDNQRGHGAGGASILTFWDARLYKVAVGFMLAHPYGFTRVMSSYRWARNFVNGQDVNDWIGPPNNNGVIKEVTINADTTCGNDWVCEHRWRQIRNMVWFRNVVDGQPFANWWANGSNQVAFGRGNRGFIVFNNDDWQLSSTLQTGLPGGTYCDVISGDKVGNSCTGIKVYVSSDGTAQFSISNSAEDPFIAIHAESKL
notes: EC 3.2.1.1 from porcine pancreas (Type 1-A)
In the case of B4, the “Relative activity … (mean ± SD, n = 12)” value in series [1] was 4.3 ± 0.2.
